Source: US20150273076A1, “SP1 POLYPEPTIDES, MODIFIED SP1 POLYPEPTIDES AND USES THEREOF” (Fulcrum SP Ltd., priority 2006, published 2015)
Positions count from the first letter of the chain named. Names may count otherwise.

B1: Cys2 K18R Gly19: Insertion of Cys residue in position 2 and of glycine residue in position 19, K18R (Cys2loop1RGd), SEQ ID NO:11 (protein)
chain: MCATRTPKLVKHTLLTRFRGDEITREQIDNYINDYTNLLDLIPSMKSFNWGTDLGMESAELNRGYTHAFESTFESKSGLQEYLDSAALAAFAEGFLPTLSQRLVIDYFLY
modifications: Sp1 mutant variant Cys inserted into position 2, K18R mutated and a Gly inserted into position 19
B2: HH2: SP1 N-terminus modification HH2, SEQ ID NO:4 (protein)
chain: MHHATRTPKLVKHTLLTRFKDEITREQIDNYINDYTNLLDLIPSMKSFNWGTDLGMESAELNRGYTHAFESTFESKSGLQEYLDSAALAAFAEGFLPTLSQRLVIDYFLY
modifications: Sp1 mutant variant 2X His inserted into position 2
B3: 6H2: six histidine N-terminal tagged SP1, SEQ ID NO:7 (protein)
chain: MHHHHHHATRTPKLVKHTLLTRFKDEITREQIDNYINDYTNLLDLIPSMKSFNWGTDLGMESAELNRGYTHAFESTFESKSGLQEYLDSAALAAFAEGFLPTLSQRLVIDYFLY
B4: Δ2-6 His2: SP1 variant Δ2-6 His2, SEQ ID NO:8 (protein)
chain: MHKLVKHTLLTRFKDEITREQIDNYINDYTNLLDLIPSMKSFNWGTDLGMESAELNRGYTHAFESTFESKSGLQEYLDSAALAAFAEGFLPTLSQRLVIDYFLY
modifications: Sp1 mutant variant His inserted into position 2 together with a deletion of amino acid 2-6
B5: Δ2-7 Cys2: SP1 variant Δ2-7 Cys2, SEQ ID NO:9 (protein)
chain: MCLVKHTLLTRFKDEITREQIDNYINDYTNLLDLIPSMKSFNWGTDLGMESAELNRGYTHAFESTFESKSGLQEYLDSAALAAFAEGFLPTLSQRLVIDYFLY
modifications: Sp1 mutant variant Cys inserted into position 2 together with a deletion of amino acid 2-7
B6: R23A: SP1 mutant R23A, SEQ ID NO:12 (protein)
chain: MATRTPKLVKHTLLTRFKDEITAEQIDNYINDYTNLLDLIPSMKSFNWGTDLGMESAELNRGYTHAFESTFESKSGLQEYLDSAALAAFAEGFLPTLSQRLVIDYFLY
modifications: Sp1 mutant variant R23A mutated
B7: D27A: SP1 mutant D27A, SEQ ID NO:13 (protein)
chain: B6 chain with A23R, D27A
modifications: Sp1 mutant variant D27A mutated
B8: I30A: SP1 mutant I30A, SEQ ID NO:14 (protein)
chain: B6 chain with A23R, I30A
modifications: Sp1 mutant variant I30A mutated
B9: N31A: SP1 mutant N31A, SEQ ID NO:15 (protein)
chain: B6 chain with A23R, N31A
modifications: Sp1 mutant variant N31A mutated
B10: T34A: SP1 mutant T34A, SEQ ID NO:16 (protein)
chain: B6 chain with A23R, T34A
modifications: Sp1 mutant variant T34A mutated
B11: D38A: SP1 mutant D38A, SEQ ID NO:17 (protein)
chain: B6 chain with A23R, D38A
modifications: Sp1 mutant variant D38A mutated
B12: Δ2-6 I40C: SP1 Loop 2 modification Δ2-6 I40C, SEQ ID NO:18 (protein)
chain: B5 chain with C2K, I35C
modifications: Sp1 mutant variant amino acids 2-6 deleted and I40C mutated
B13: E68A: SP1 mutant E68A, SEQ ID NO:19 (protein)
chain: B6 chain with A23R, E68A
modifications: Sp1 mutant variant E68A mutated
B14: Δ2-6 E72C: SP1 Loop 4 modification Δ2-6 E72C, SEQ ID NO:20 (protein)
chain: B5 chain with C2K, E67C
modifications: Sp1 mutant variant amino acids 2-6 deleted and E72C mutated
B15: 42-6 S73C: SP1 Loop 4 modification, printed 42-6 S73C, SEQ ID NO:21 (protein)
chain: B5 chain with C2K, S68C
modifications: Sp1 mutant variant amino acids 2-6 deleted and S73C mutated
B16: Δ2-6 L81C: SP1 variant Δ2-6 L81C, external perimeters of the dodecamer ring, SEQ ID NO:22 (protein)
chain: B5 chain with C2K, L76C
modifications: Sp1 mutant variant amino acids 2-6 deleted and L81C mutated
B17: F106A 6XH2: SP1 mutant F106A 6XH2, SEQ ID NO:23 (protein)
chain: B3 chain with F112A
modifications: Sp1 mutant variant 6Xhis inserted into position 2 and F106A mutated
B18: Y108A: SP1 mutant Y108A, SEQ ID NO:24 (protein)
chain: B6 chain with A23R, Y108A
modifications: Sp1 mutant variant Y108A mutated
B19: S73A S75A 6XH2: SP1 mutant S73A S75A 6XH2, SEQ ID NO:28 (protein)
chain: B3 chain with S79A, S81A
modifications: Sp1 mutant variant 6Xhis inserted into position 2, S73A and S75A mutated
B20: D38A S75A 6XH2: SP1 mutant D38A S75A 6XH2, SEQ ID NO:29 (protein)
chain: B3 chain with D38A, D44A, S75A, S81A
modifications: Sp1 mutant variant 6Xhis inserted into position 2, D38A and S75A mutated
B21: N31A T34A 6XH2: SP1 mutant N31A T34A 6XH2, SEQ ID NO:30 (protein)
chain: B3 chain with N37A, T40A
modifications: Sp1 mutant variant 6Xhis inserted into position 2, N31A and T34A mutated

Columns and labels:
[1] = Oligomeric complex formation by SDS PAGE (unboiled samples); conditions: for Complex Formation: SDS PAGE, samples not boiled in the application buffer
Protocol: SP1 (20 μg) was prepared in SDS sample buffer at different SP1-monomer: SDS molar ratios and boiled (or not) (5 mM) prior to SDS-PAGE analysis. Heat stability of SP1 oligomer (10 μg) was tested in the same buffer at SP1-monomer: SDS=1:1733 and heated for 1 to 10 mM at different temperatures.
Purified 6HSP1 and ΔNSP1 were first denatured to the monomeric forms by boiling the proteins in SDS sample buffer. The denatured proteins were then separated in preparative SDS-PAGE, and visualized by Coomassie blue staining. The monomeric forms of two recombinant protein bands were excised. Gel slices that carried monomeric form of 6HSP1 (SEQ ID NO:7) and ΔNSP1 (SEQ ID NO:2) were mixed at 1:1 ratio (v/v). In order to enhance the surface/volume ratio, the gel slices were pulverized using a pestle and mortar in the presence of liquid nitrogen. […] The hetero-oligomeric complex was isolated by subjecting the eluated protein to Ni-NTA Agarose beads and the bound proteins were eluted by 400 mM imidazole using a standard procedure (Sigma protocol for P 6611). […] The composition of hetero-oligomeric SP1 was determined by SDS-PAGE and visualized by silver staining.

[2] = Heat stability (no precipitation after heat treatment); conditions: 10 min at 100° C. or 30 min at 85° C.
[3] = Protein melting point by DSC; format: physicochemical; conditions: protein melting point by DSC; in °C (unit assumed)
Protocol: Differential scanning calorimetry study of SP1 indicates in a Tm of 107° C. for SP1. […] Further, folding and refolding of inclusion bodies including insoluble SP1, and the heat stability of the unfolded proteins indicate that the intact monomer, as well as the oligomer, is heat resistant (FIG. 5).

Molecule | oligomeric complex formation, stability and resistance ([1]; boiling and protease stability) | Heat stability [2] | Tm [3] | Complex Formation [1]
B1 | formed a boiling stable and protease resistant dodecamer | + |  | 
B2 |  | + |  | 
B3 |  |  | 109 | 
B4 |  | + |  | 
B5 |  | + |  | 
B6 |  | + | 108 | 
B7 |  | + |  | 
B8 |  |  | 98 | 
B9 |  | + | 110 | 
B10 |  | + | 114 | 
B11 |  | + | 113 | 
B12 |  | + |  | 
B13 |  | + | 105.8 | 
B14 |  | + |  | 10
B15 |  | + |  | 11
B16 |  | + |  | 
B17 |  |  | 75 | 
B18 |  |  | 68 | 
B19 |  | + |  | 
B20 |  | + | 112 | 
B21 |  |  | 96.6 | 
